Our source for the decrease in HCMV entry (pp65 positive cells) values is patent US20110311523A1.

For this test, the target named is human platelet derived growth factor-α receptor (PDGFRα) (human) (UniProt P16234). Description: cell-based or functional assay.
human platelet derived growth factor-α receptor (PDGFRα) (human), sequence (P16234 24-1089): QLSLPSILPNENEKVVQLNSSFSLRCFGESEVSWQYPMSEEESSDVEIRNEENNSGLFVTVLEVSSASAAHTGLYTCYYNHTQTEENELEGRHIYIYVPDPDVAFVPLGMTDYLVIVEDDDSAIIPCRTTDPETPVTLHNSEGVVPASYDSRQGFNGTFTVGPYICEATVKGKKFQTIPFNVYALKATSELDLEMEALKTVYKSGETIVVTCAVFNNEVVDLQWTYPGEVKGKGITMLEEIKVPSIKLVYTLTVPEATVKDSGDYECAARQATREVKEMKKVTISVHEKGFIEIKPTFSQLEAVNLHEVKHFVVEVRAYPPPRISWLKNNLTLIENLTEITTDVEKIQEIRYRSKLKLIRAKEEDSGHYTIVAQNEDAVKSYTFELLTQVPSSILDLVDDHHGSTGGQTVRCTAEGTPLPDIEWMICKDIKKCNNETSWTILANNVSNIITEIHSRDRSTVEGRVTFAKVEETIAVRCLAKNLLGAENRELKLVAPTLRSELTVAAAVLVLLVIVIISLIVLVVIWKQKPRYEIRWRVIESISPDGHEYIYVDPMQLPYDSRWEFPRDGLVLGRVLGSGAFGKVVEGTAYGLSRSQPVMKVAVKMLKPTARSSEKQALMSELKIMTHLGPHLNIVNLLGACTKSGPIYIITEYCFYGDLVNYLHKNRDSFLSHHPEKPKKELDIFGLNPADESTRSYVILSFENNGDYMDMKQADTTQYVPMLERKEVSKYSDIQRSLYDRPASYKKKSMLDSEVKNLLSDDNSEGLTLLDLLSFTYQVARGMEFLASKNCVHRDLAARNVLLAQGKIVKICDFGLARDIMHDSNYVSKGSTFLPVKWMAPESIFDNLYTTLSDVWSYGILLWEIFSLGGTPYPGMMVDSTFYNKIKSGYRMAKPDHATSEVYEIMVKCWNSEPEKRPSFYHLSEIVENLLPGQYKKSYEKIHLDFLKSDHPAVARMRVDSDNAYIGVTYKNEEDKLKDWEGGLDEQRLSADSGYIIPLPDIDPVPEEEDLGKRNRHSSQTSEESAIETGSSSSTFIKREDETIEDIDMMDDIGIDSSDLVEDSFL

“IMC-3G3, a humanized PDGFRα blocking antibody (ImClone Inc.)” yielded a decrease in HCMV entry (pp65 positive cells) of 45%.

The substance “PDGF-AA (from UniProt P04085 87-211) (ligand)” registered a decrease in HCMV entry (pp65 positive cells) of 30%.
